Laboratory results: US20160297851A1 (Scripps Research, published 2016)
Read-outs that look alike come from different tables or passages of the source.

Experiments:
[1] = biological target: T1, P. aeruginosa PAO1 SPase (LepB), wild type, in the bacteria (Pseudomonas aeruginosa, UniProt Q9I5G7 1-284); test: cell-based or functional assay
T1 sequence: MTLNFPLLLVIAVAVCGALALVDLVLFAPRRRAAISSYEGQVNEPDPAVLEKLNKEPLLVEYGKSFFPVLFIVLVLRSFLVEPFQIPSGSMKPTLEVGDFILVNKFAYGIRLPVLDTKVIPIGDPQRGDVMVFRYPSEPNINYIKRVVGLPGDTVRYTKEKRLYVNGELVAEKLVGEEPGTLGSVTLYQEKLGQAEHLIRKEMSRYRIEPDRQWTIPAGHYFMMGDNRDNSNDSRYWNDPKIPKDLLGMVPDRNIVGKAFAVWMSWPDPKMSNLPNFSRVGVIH

[2] = biological target: T2, S. aureus NCTC 8325 SPase (SpsB), wild type, in the bacteria (Staphylococcus aureus); test: cell-based or functional assay
[3] = biological target: E. coli MG1655 SPase (LepB) P84L, in the bacteria (E. coli, UniProt P00803 1-324); test: cell-based or functional assay
[4] = biological target: T3, S. aureus SPase (SpsB) P29S, strain PAS8001, in the bacteria (Staphylococcus aureus); test: cell-based or functional assay
[5] = biological target: T4, Staphylococcus epidermidis signal peptidase IB S29P (strain PAS9001) (Staphylococcus epidermidis); test: cell-based or functional assay
T4 chain: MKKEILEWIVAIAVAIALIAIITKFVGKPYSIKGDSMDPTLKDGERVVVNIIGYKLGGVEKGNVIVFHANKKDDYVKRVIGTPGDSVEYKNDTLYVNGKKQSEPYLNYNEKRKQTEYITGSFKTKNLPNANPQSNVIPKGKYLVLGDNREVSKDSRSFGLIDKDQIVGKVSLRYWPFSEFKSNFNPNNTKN

[6] = biological target: T5, E. coli MG1655 SPase (LepB), wild type, in the bacteria (Escherichia coli, UniProt P00803 1-324); test: cell-based or functional assay
[7] = biological target: T6, Staphylococcus epidermidis RP62A signal peptidase IB, wild type (Staphylococcus epidermidis); test: cell-based or functional assay
T6 chain: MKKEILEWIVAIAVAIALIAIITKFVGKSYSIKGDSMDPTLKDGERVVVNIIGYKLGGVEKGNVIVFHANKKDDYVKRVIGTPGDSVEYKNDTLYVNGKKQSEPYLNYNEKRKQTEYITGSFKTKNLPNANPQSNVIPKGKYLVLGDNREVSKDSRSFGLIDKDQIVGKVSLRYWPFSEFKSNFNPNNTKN

[8] = biological target: T7, detergent-solubilized full-length wild type E. coli SPase (His6x-tagged) (Escherichia coli, UniProt P00803 1-324); test: steady-state increase of arylomycin fluorescence (ex 320 nm, em 410 nm) on binding detergent-solubilised full-length wild type E. coli SPase
T7 construct: Plasmid pET23-lepB came from Dr. Mark Paetzel; also called full-length Pro-variant of E. coli SPase; full length His-tagged E. coli SPase; not shown: His6x tag of plasmid pET23-lepB

[9] = biological target: T1, P. aeruginosa PAO1 SPase (LepB), wild …; test: cell-based or functional assay; remark: listed apart in the source
[10] = biological target: T2, S. aureus NCTC 8325 SPase (SpsB), wild …; test: cell-based or functional assay; remark: listed apart in the source
[11] = biological target: T3, S. aureus SPase (SpsB) P29S, strain …; test: cell-based or functional assay; remark: listed apart in the source
[12] = biological target: T4, Staphylococcus epidermidis signal …; test: cell-based or functional assay
[13] = biological target: T8, Staphylococcus epidermidis signal peptidase IB S31P (strain PAS9002) (Staphylococcus epidermidis); test: cell-based or functional assay
T8 chain: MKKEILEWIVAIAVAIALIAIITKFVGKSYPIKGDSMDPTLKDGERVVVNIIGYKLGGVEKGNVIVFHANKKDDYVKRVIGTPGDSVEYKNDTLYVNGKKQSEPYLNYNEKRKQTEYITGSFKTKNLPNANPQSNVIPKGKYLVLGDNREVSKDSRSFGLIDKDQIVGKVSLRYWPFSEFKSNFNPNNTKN

[14] = biological target: T9, P. aeruginosa SPase (LepB) P84S, strain PAS2006, in the bacteria (Pseudomonas aeruginosa, UniProt Q9I5G7 1-284); test: cell-based or functional assay
T9 sequence: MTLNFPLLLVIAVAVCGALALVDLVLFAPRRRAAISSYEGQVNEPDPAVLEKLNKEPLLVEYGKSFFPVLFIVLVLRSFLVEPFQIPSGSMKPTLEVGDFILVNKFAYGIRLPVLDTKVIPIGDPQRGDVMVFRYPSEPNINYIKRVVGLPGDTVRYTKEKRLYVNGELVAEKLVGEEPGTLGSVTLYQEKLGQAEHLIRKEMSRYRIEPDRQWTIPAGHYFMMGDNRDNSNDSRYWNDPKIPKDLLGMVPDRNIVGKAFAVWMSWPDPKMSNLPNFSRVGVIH

[15] = biological target: E. coli SPase (LepB) P84S, strain PAS0232, in the bacteria (Escherichia coli, UniProt P00803 1-324); test: cell-based or functional assay
[16] = biological target: T5, E. coli MG1655 SPase (LepB), wild type, …; test: cell-based or functional assay; remark: listed apart in the source
[17] = biological target: T6, Staphylococcus epidermidis RP62A signal …; test: cell-based or functional assay
[18] = biological target: T10, P84S variant of detergent-solubilized full-length E. coli SPase (His6x-tagged) (Escherichia coli, UniProt P00803 1-324); test: steady-state increase of arylomycin fluorescence (ex 320 nm, em 410 nm) on binding detergent-solubilised full-length E. coli SPase P84S
[19] = biological target: T10, P84S variant of detergent-solubilized …; test: steady-state binding by increase of arylomycin fluorescence; detergent-solubilized full-length His-tagged SPase
[20] = biological target: T7, detergent-solubilized full-length wild …; test: as above
[21] = biological target: T4, Staphylococcus epidermidis signal …; test: cell-based or functional assay
[22] = biological target: T8, Staphylococcus epidermidis signal …; test: cell-based or functional assay

B1: arylomycin C16 (peptide)
peptide: SAGXAY
modifications: C16 fatty acyl (palmitoyl) tail on the N-terminus of N-methyl-D-Ser2; D-Ala3; N-methyl-4-hydroxyphenylglycine (MeHpg) at 5, written X; biaryl bridge between MeHpg5 and Tyr7 (macrocycle MeHpg5-Ala6-Tyr7); free C-terminal carboxyl; the filing counts the lipid tail as position 1
notes: Synthetic lipohexapeptide derived from the natural product arylomycin A2, with a straight C16 fatty acid tail; It has non-standard and D-residues and is macrocyclic, so it is a borderline case of 'peptide'; also called arylomycin A-C16; Arylomycin A2 C16
MIC [1]: > 64 µg/mL
MIC [2]: > 64 µg/mL
MIC [3]: 0.5 µg/mL
MIC [4]: 2 µg/mL
MIC [5]: 8 µg/mL
MIC [6]: > 64 µg/mL
MIC [7]: 0.5 µg/mL
EC50 (read off the curve) [8]: ~100 nM
MIC [9]: > 128 µg/mL
MIC [10]: > 128 µg/mL
MIC [11]: 2 µg/mL
MIC [12]: 8 µg/mL
MIC [13]: > 128 µg/mL
MIC [14]: 8 µg/mL
MIC [15]: 2 µg/mL
MIC [16]: > 128 µg/mL
MIC [17]: 0.25 µg/mL
EC50 (read off the curve) [18]: ~10 nM
Kd [18]: 5.73 nM
Kd [19]: 5.7 nM
Kd [20]: 60 nM
fold elevation of MIC compared to the wild type strain [21]: 32 fold
fold elevation of MIC compared to the wild type strain [22]: > 256 fold
